Laboratory results reported in patent US20040265337A1, “Method of generating an immune response and compositions used for same” (priority 2002, published 2004).

B1: alpha 1-antichymotrypsin: serpin, inhibitor of defensins (protein, UniProt P01011 24-423, looked up)
Alpha-1-antichymotrypsin: HPNSPLDEENLTQENQDRGTHVDLGLASANVDFAFSLYKQLVLKAPDKNVIFSPLSISTALAFLSLGAHNTTLTEILKGLKFNLTETSEAEIHQSFQHLLRTLNQSSDELQLSMGNAMFVKEQLSLLDRFTEDAKRLYGSEAFATDFQDSAAAKKLINDYVKNGTRGKITDLIKDLDSQTMMVLVNYIFFKAKWEMPFDPQDTHQSRFYLSKKKWVMVPMMSLHHLTIPYFRDEELSCTVVELKYTGNASALFILPDQDKMEEVEAMLLPETLKRWRDSLEFREIGELYLPKFSISRDYNLNDILLQLGIEEAFTSKADLSGITGARNLAVSQVVHKAVLDVFEEGTEASAATAVKITLLSALVETRTIVRFNRPFLMIIVPTDTQNIFFMSKVTNPKQA
B2: HD-5: human defensin 5, anti-microbial peptide of the human intestine (protein, UniProt Q01523 20-94, looked up)
Defensin alpha 5: ESLQERADEATTQKQSGEDNQDLAISFAGNGLSALRTSGSQARATCYCRTGRCATRESLSGVCEISGRLYRLCCR
modifications: Defensin-5
notes: human defensin 5, anti-microbial peptide of the human intestine

Experiments:
[1] = system: trypsin; settings: in vitro; cited from earlier work
[2] = system: human CEA antigen; test: Cytotoxicity (CTL) assays in HD-5 transgenic mice immunized orally with the Salmonella based CEA-DNA vaccine; type: in vivo; settings: oral immunization, defensin inhibitor co-formulated or expressed by the strain
Excerpt: HD-5 inhibitors enhance efficacy of whole organism vaccines such as Salmonella enterica serovar Typhimurium. Human defensin 5 (HD-5), is the major defensin in humans which is bactericidal for Salmonella typhimurium infection. HD-5 transgenic mice are dramatically more resistant to Salmonella typhimurium infection providing a model system to study effectiveness of Salmonella typhimurium as a platform vaccine carrier in the presence of inhibitors of HD-5. See Gosh D. et al., Nature Immunology, 3:583 (2002); Zasloff M, Nature Immunology, 3:508 (2002). HD-5 inhibitors increase efficacy of the Salmonella enterica based human CEA-DNA vaccine. Human CEA (carcinoembryonic antigen) is a tumor antigen for which protective immunity can be induced by vaccination with a live attenuated Salmonella enterica vaccine. See Xiang R. et al., Clinical Cancer Research, 7: 856s (2001). Efficacy of the vaccine is measured by conducting cytotoxicity (CTL) assays in HD-5 transgenic mice to measure immune response to the human CEA antigen. CTL assays are conducted in mice immunized orally with various doses of the vaccine (RemeStim-CEA), with or without addition of the HD-5 inhibitor. […]

[3] = biological target: T1, HD-5 (Homo sapiens, UniProt Q01523); settings: in vitro, against Salmonella enterica serovar Typhimurium; cited from earlier work
T1 sequence (Q01523 63-94 limits assumed): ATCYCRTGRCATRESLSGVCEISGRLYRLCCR

[4] = system: Salmonella enterica serovar Typhimurium; settings: cited from earlier work

Row | Molecule | inhibition of the bactericidal activity of the mature, active defensin [3] | other results
1 | N=C(N)c1ccc(CS(=O)(=O)F)cc1 [APMSF, 4-amidinophelylmethane sulfonyl-fluoride] | – | inhibition of maturation of pro-HD-5 to mature HD-5 by trypsin [1]: inhibit maturation of pro-HD-5 to mature HD-5
2 | Dermatan sulfate [reference compound] | inactivates alpha-defensin anti-bacterial activity | effectiveness of the Salmonella based CEA-DNA vaccine as measured by cytotoxicity assays [2]: enhances the effectiveness
3 | Pro-piece of HD-5: pro-domain of human HD-5 (amino acids 20-62), HD-5 peptide inhibitor (ESLQERADEATTQKQSGEDNQDLAISFAGNGLSALRTSGSQAR) | inhibit the bactericidal activity | –
4 | alpha 1-proteinase inhibitor: serpin, inhibitor of defensins | inhibit the bactericidal activity | –
5 | alpha 2-macroglobulin: protein inhibitor of defensins | inhibit the bactericidal activity | –
6 | B1 | inhibit the bactericidal activity | –
7 | B2 | – | bactericidal activity against Salmonella Typhimurium [4]: bactericidal
